Source: patent US20230250461A1

Key:
[1] = target: IvaP from Vibrio cholerae, the alkaline serine protease corresponding to the gene VC 0157 (purified) (Vibrio cholerae); assay: cell-based or functional assay
[2] = target: IvaP from Vibrio cholerae, the alkaline serine protease corresponding to the gene VC 0157 (purified) (Vibrio cholerae); assay: solvatochromic dye fluorescence, plate reader; I9-dye conjugate 3 µM, IvaP 1 µM (FIG. 7A)
[3] = target: IvaP from Vibrio cholerae, the alkaline serine protease corresponding to the gene VC 0157 (purified) (Vibrio cholerae); assay: solvatochromic dye fluorescence, multi-well plate reader; probe 3 µM, IvaP 1 µM preincubated with PMSF (FIG. 9B)

Row | Substance | decrease in fluorescence intensity [1] [fold] | relative fluorescence change (Fbound/Funbound) [2] [fold] | increase in fluorescence intensity [3] [fold]
1 | I9 E123C-MDCC conjugate (peptide) | 4 | – | –
2 | I9 I128C-IANBD conjugate (peptide) | – | 2 | 2
